Six molecules from patent US20240150455A1 (SHANGHAI GENBASE BIOTECHNOLOGY, published 2024) can be followed below.

In experiment [1] the target is T1, human CLDN6 (Claudin 6) (human, UniProt P56747 1-220).
T1 construct: whole, on cells; Over-expressed on CHOS cells (CHOS-hCLDN6) or naturally expressed on the tumor cells OV90, NEC8, NTERA2 and Bewo; also called hCLDN6; CHOS-hCLDN6
T1 sequence (looked up): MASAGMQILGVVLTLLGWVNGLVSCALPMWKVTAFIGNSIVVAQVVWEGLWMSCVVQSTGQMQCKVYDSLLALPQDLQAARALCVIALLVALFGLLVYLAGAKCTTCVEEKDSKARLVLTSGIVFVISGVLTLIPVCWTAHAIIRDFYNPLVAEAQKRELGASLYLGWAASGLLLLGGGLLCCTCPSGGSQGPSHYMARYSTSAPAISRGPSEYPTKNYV
The experiment can be described thus: flow cytometry on Bewo tumor cells naturally expressing human CLDN6. Here is the method:
(§1) 500,000 CLDN6-naturally expressing tumor cells (0V90, ATCC; NEC8, JCRB; NTERA2, Nanjing Cobioer Biosciences Co., Ltd; Bewo, Nanjing Cobioer Biosciences Co., Ltd) were placed in FACS buffer for later use, in which round-bottom low-adsorption 96-well plates were used. Antibody samples were serially diluted with FACS buffer. The diluted antibody was added to the cell plates, and FACS buffer was added to the corresponding negative control wells, and incubation was performed at 4° C. for 1 hour. […] After staining, the supernatant was removed by centrifugation, washing was performed twice with FACS buffer, and the cells were resuspended by adding FACS buffer to each well, and then loaded on a machine for reading. A flow cytometer (BD Company, model CantoII) was used to measure and read the cells in the experimental plate. During the measurement, the position of cells was first delineated according to FCS and SSC, and then the fluorescence channel corresponding to the second antibody and SSC were selected to analyze the cells. GraphPad was used for data analysis, the logarithm of antibody concentration was used on the abscissa, and the average fluorescence intensity value was used on the ordinate. […]
Background: A flow cytometer gives signals particle by particle.

The target in experiment [2] is T1, human CLDN6 (Claudin 6). The experiment can be described thus: cell-based or functional assay.
For experiment [3], the target named is T1, human CLDN6 (Claudin 6). The experiment can be described thus: flow cytometry on NTERA2 tumor cells naturally expressing human CLDN6. The method, then:
as §1

For experiment [4], the target named is T1, human CLDN6 (Claudin 6). The experiment can be described thus: flow cytometry on OV90 tumor cells naturally expressing human CLDN6. The method, then:
as §1

Experiment [5] concerns the target T1, human CLDN6 (Claudin 6). The experiment can be described thus: flow cytometry on NEC8 tumor cells naturally expressing human CLDN6. Here is the method: as §1
Experiment [6] concerns the target T1, human CLDN6 (Claudin 6). The experiment can be described thus: flow cytometry on CHOS-hCLDN6 cells. Here is the method: (§2) Flow cytometric evaluation of mouse antibody binding to CLDN3/4/6/9: 500,000 CLDN6 expressing cells (CHOS-hCLDN6, CHOS-CLDN3, CHOS-CLDN4, CHOS-CLDN9) were placed in FACS buffer (PBS+2% FBS)/well, added with the mouse antibody to be tested and incubated at 4° C. for 1 hour. The supernatant was removed by centrifugation, washing was performed twice with FACS buffer, secondary antibody (DyLight488 goat anti-mouse IgG, Abcam, Cat. No.: ab97015) was added and incubated at 4° C. for 0.5 hours. After staining, the supernatant was removed by centrifugation, washing was performed twice with FACS buffer, the cells were resuspended with FACS buffer, and then loaded on the machine for reading. A flow cytometer (BD company, model CantoII) was used to measure and read the experimental cells. During the measurement, the cell position was first delineated according to FCS and SSC, and then the fluorescence channel corresponding to the second antibody and SSC were selected to analyze the cells.

For a further experiment, the target named is T2, human CLDN9 (Claudin 9) (human, UniProt O95484 1-217).
T2 construct: whole, on cells; Over-expressed on CHOS cells by lentiviral infection; also called CHOS-CLDN9
T2 sequence (looked up): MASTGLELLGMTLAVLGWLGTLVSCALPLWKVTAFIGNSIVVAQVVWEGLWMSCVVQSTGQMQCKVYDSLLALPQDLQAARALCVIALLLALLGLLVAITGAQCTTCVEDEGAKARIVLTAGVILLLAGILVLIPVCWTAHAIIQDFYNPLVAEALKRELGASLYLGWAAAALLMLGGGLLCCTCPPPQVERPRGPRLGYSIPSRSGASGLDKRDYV
The experiment can be described thus: flow cytometry on CHOS-CLDN9 cells. The method, then: as §2

Experiment [7] has as its target T1, human CLDN6 (Claudin 6). The experiment can be described thus: binding to CLDN6-expressing cells (FIG. 6: NEC8, Bewo).

Changes are numbered by the printed parent chain.

B1: humanized antibody 7008-03 (antibody, human IgG1, kappa, V domains shown)
VH: EVQLVESGGGLVQPGGSLRLSCAASGFTFSIYGMSWVRQAPGKGLEWVATISRDASYTYFPDSVKGRFTISRDNAKNSLYLQMNSLRAEDTAVYYCVRLGDNDRGYAMDYWGQGTLVTVSS
VL: DVVMTQSPLSLPVTLGQPASISCRSSQSVVHVNANTYLEWYQQRPGQSPRLLIYKVSNRFPGVPDRFSGSGSGTDFTLKISRVEAEDVGVYYCFQGSHVPRTFGGGTKVEIKR
notes: Human IgG1 heavy chain constant region, human kappa light chain constant region
Consider B1, for which the EC50 with human CLDN6 (Claudin 6) [1] is 0.9 µg/mL. In the experiment with human CLDN6 (Claudin 6) [2], the “ADCC EC50, Bewo target cells, Jurkat-NFAT-Luc-CD16 effector reporter cells” value was determined as 0.21 µg/mL; the “ADCC EC50, NEC8 target cells, Jurkat-NFAT-Luc-CD16 effector reporter cells” value came to 0.071 µg/mL; the “ADCC EC50, NTERA2 target cells, Jurkat-NFAT-Luc-CD16 effector reporter cells” value was determined as 0.4 µg/mL; the “ADCC EC50, OV90 target cells, Jurkat-NFAT-Luc-CD16 effector reporter cells” value amounted to 0.16 µg/mL. The molecule further displayed an EC50 in the experiment with human CLDN6 (Claudin 6) [3] of 1.02 µg/mL. Further, the EC50 with human CLDN6 (Claudin 6) [4] was found to be 3.79 µg/mL. The same molecule gave an EC50 with human CLDN6 (Claudin 6) [5] of 0.91 µg/mL.

B2: humanized antibody 7008-01 (antibody, human IgG1, kappa, V domains shown)
VH: QVQLQESGPGLVKPSETLSLTCTVSGYSITSGYYWNWIRQPPGKGLEWMGYISYSGSNNYNPSLKNRVTISRDTSKNQFSLKLSSVTAADTAVYYCARGGYYFDYWGQGTLVTVSS
VL: DIVMTQSPDSLAVSLGERATINCKSSQSLLNTNNQKNYLAWYQQKPGQPPKLLIYFASTRESGVPDRFSGSGSGTDFTLTISSLQAEDVAVYFCQQHYNAPRTFGGGTKVEIKR
notes: as for B1
Molecule B2 registered an EC50 in the experiment with human CLDN6 (Claudin 6) [1] of 1.06 µg/mL. For the same molecule, in the experiment with human CLDN6 (Claudin 6) [2], the “ADCC EC50, Bewo target cells, Jurkat-NFAT-Luc-CD16 effector reporter cells” value was 0.7 µg/mL; the “ADCC EC50, NEC8 target cells, Jurkat-NFAT-Luc-CD16 effector reporter cells” value came to 0.15 µg/mL; the “ADCC EC50, NTERA2 target cells, Jurkat-NFAT-Luc-CD16 effector reporter cells” value worked out at 0.55 µg/mL; the “ADCC EC50, OV90 target cells, Jurkat-NFAT-Luc-CD16 effector reporter cells” value was 0.55 µg/mL. The EC50 in the experiment with human CLDN6 (Claudin 6) [3] was found to be 1.22 µg/mL. Further, the EC50 in the experiment with human CLDN6 (Claudin 6) [4] came out at 2.85 µg/mL. The EC50 with human CLDN6 (Claudin 6) [5] turned out to be 1.31 µg/mL.

B3: anti-CLDN6 murine antibody 15H2 (antibody, V domains shown)
VH: DVQLQESGPGLVKPSQSLSLTCSVTGYSITSGYYWNWIRQFPGNKLEWMGYISYDGSNNYNPSLKNRFSIIRDTSKNQFFLKFNSVTTEDTATYYCARGGYYFDYWGQGTTLTVSS
VL: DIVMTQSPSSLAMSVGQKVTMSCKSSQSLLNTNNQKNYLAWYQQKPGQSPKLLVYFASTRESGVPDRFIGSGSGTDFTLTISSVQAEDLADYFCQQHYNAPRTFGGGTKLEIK
notes: Mouse hybridoma antibody, detected with anti-mouse IgG; the murine constant regions are not
Regarding B3, the binding result with human CLDN6 (Claudin 6) [6] is “binds”.

B4: anti-CLDN6 murine antibody 9H3 (antibody, V domains shown)
VH: EVQLVESGGDLVKPGGSLKLSCAASGFTFSIYGMSWVRQSPDRRLEWVATISRDGSYTYFPDSVKGRFTISRDNAKNTLYLQMSSLKSEDTAMYYCVRLGDNDRGYAMDYWGQGTSVTVSS
VL: DVLMTQTPLSLPVSLGDQASISCRSSQSVVHVNGNTYLEWYLQKPGQSPRLLIYKVSNRFPGVPDRFSGSGSGTDFTLRISRVEAEDLGVYYCFQGSHVPRTFGGGTNLEIK
notes: as for B3
B4: the binding result with human CLDN9 (Claudin 9) and with human CLDN6 (Claudin 6) [6] was “binds” throughout.

B5: 9H3 hotspot mutant, LCDR1 NG mutated to SG and HCDR2 DG mutated to DA (antibody, V domains shown)
VH: B4 VH with G55A
VL: B4 VL with N33S
notes: also called 9H3 antibody with a hotspot mutant
Regarding B5, the “fold change of the ability to bind against the unmutated antibody” value with human CLDN6 (Claudin 6) [7] was ≤ 3 times.

B6: 9H3 hotspot mutant, LCDR1 NG mutated to NA and HCDR2 DG mutated to DA (antibody, V domains shown)
VH: B4 VH with G55A
VL: B4 VL with G34A
notes: as for B5
With B6, the “fold change of the ability to bind against the unmutated antibody” value in the experiment with human CLDN6 (Claudin 6) [7] was ≤ 3 times.

The EC50 is the concentration at which the effect is half-maximal. The low end stands for higher potency in that assay, the high end for lower potency in that assay.
